Reference: PMC3382428

Columns and labels:
[1] = molecular target: gp130 on human cord blood Lin-CD34+ cells (human (endogenous in cord blood Lin-CD34+ cells)) (UniProt P40189)
[2] = molecular target: gp130 on Ba/F3-gp130 cells (UniProt P40189)
[3] = molecular target: IL-6R (Homo sapiens) (UniProt P08887); details: cited from earlier work
Sequence of IL-6R (Homo sapiens) (P08887 20-355): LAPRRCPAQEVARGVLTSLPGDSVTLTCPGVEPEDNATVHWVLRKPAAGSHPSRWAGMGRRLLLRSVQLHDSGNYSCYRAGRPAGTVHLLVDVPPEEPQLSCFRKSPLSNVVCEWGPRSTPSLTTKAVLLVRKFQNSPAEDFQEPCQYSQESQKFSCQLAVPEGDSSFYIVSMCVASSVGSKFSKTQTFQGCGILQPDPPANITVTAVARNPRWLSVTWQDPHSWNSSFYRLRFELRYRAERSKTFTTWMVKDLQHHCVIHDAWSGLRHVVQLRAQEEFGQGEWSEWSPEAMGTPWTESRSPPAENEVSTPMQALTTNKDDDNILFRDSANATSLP

Sequence of gp130 on Ba/F3-gp130 cells (P40189 23-918): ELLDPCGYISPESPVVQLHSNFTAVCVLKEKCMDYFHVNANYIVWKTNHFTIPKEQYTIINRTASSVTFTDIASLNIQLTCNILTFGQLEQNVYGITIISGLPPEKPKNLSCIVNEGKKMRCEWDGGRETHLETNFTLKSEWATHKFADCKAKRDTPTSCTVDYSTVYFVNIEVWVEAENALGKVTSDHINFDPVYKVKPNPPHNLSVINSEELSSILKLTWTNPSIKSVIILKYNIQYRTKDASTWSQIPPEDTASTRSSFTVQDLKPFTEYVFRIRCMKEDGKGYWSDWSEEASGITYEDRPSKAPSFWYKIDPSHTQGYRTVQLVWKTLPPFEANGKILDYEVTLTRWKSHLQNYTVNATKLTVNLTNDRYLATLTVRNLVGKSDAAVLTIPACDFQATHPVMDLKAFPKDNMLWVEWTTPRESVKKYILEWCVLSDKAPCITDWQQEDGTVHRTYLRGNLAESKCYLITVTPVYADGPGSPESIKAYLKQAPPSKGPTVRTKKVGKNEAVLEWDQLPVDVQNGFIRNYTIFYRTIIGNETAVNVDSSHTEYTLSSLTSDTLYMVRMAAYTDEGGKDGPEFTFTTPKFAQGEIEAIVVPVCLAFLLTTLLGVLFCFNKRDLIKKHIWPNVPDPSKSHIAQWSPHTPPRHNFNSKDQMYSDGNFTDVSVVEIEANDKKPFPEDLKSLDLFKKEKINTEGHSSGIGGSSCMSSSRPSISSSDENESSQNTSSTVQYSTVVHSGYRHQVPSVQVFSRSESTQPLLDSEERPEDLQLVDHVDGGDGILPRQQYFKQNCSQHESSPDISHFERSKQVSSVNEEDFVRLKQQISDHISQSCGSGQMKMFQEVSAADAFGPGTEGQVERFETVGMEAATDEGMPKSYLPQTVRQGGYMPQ
Sequence of gp130 on human cord blood Lin-CD34+ cells (human (endogenous in cord blood Lin-CD34+ cells)) (P40189 23-918): as above
Sequence of IL-6 (P05231 30-212): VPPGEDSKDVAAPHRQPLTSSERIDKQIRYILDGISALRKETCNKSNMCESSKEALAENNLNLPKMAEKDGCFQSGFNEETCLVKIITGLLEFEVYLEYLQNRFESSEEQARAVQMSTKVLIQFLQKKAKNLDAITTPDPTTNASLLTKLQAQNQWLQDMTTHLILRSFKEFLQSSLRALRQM

CD235a+ (erythroid) cells in Lin-CD34+ liquid culture with 50 ng/ml H11, day 14, flow cytometry (27% with Hyper-IL-6, 20% in control culture) [1] [%]	proliferation of Ba/F3-gp130 cells (MTT, 72 h): dose of H11 for half-maximum proliferation [2] [pM]	Substance	Kd [3] [nM]
39	800 to 900	Hyper IL-11 (H11) (from UniProt Q14626 23-365; P20809 19-199)	–
–	–	IL-6 (from UniProt P05231)	1
